Results from publication PMC5705219, “A map of human PRDM9 binding provides evidence for novel behaviors of PRDM9 and other zinc-finger proteins in meiosis” (eLife, 2017).

Biological target: the molecule itself
Test: co-IP; direct competition: HEK293T transfected with three constructs, Human and Chimp prey with the same epitope tag and Human or Chimp bait with the complementary tag; IP against the bait tag, western against the prey tag; both directions of HA/V5 tagging

B1: full-length human PRDM9 (B allele), C-terminally tagged with HA or V5 (natural protein)
chain: not shown
notes: synthetic cDNA of the full-length 2,685 bp transcript with 218 synonymous base changes in the zinc-finger exon; An HA and a V5 version were made; tag cassette is linker-TwinStrep-linker-HA/V5-linker-P2A between PRDM9 and YFP; also called Human-HA; Human-V5; source: HEK293T, transfected (pLENTI CMV/TO Puro DEST, FuGENE-HD), in lysate; not shown: HA or V5, C-terminal, kept
fold pull-down efficiency against Chimp PRDM9 prey on the same Human bait: > 2 fold
